This is an account of results in PMC8980211 (2022).

This test deals with SARS-CoV-2 RBD protein (immobilised in SPR) (SARS-CoV-2, UniProt P0DTC2 319-541). The test is described as follows: SPR. On the technique in general: SPR reads the build-up and loss of mass on a sensor chip optically.

B1: mAb 35B5 (antibody, V domains shown)
VH: QVQLLESGGGLVQPGRSLRLSCAASGFTFDDYAMHWVRQAPGKGLEWVSGVSWNSGTIGYADSVKGRFTISRDNAKNSLYLHMRSLRAEDTALYYCAKAVEMVRGLMGLGADPEYGMDVWGQGTTVTVSS
VL: not shown
As for B1, the koff (commonly the first-order rate constant of dissociation) stood at 5.49e-06 s⁻¹.
